How the values were obtained:
[1] = tested on: Cricetulus griseus alpha-(1,6)-fucosyl transferase (FUT8) mRNA; experiment: Antibody titer and fucosylation with different numbers of amiRNA hairpins in the 3' UTR of the glutamine synthetase selectable marker; assay type: cell-based; conditions: for antibody titer: weaker (PGK) promoter operably linked to glutamine synthetase, amiRNA in 3' UTR; for antibody fucosylation: weaker (PGK) promoter, amiRNA in GS 3' UTR, natural level around 80-85%
Description: One- two- or three-hairpin amiRNAs were incorporated into the 3′ UTR of a glutamine synthetase selectable marker on a transposon. The multi-hairpin amiRNA with nucleotide sequence SEQ ID NO: 194 comprised three hairpins as described in Section 6.1.1.1.
These amiRNA sequences were placed to the 3′ of an open reading frame encoding a glutamine synthetase protein (with polypeptide sequence SEQ ID NO: 307) and followed by a human globin polyadenylation sequence. The amiRNA genes were cloned into a transposon vector in which they were operably linked to a Pol II promoter. The transposon further comprised genes encoding an antibody with mature light chain polypeptide sequence SEQ ID NO: 286 and mature heavy chain polypeptide sequence SEQ ID NO: 288. The transposon further comprised a left end comprising a 5′-TTAA-3′ target sequence immediately followed by an ITR with nucleotide sequence SEQ ID NO: 423 (which is an embodiment of SEQ ID NO: 421) and additional nucleotide sequence SEQ ID NO: 417 and a right end comprising nucleotide sequence SEQ ID NO: 419 immediately followed by an ITR with nucleotide sequence SEQ ID NO: 424 (which is an embodiment of SEQ ID NO: 422) immediately followed by a 5′-TTAA-3′ target sequence. The transposon was configured so that the multi-hairpin amiRNA, the glutamine synthetase gene and the genes for both antibody chains, as well as all necessary operably linked control elements were transposable by a corresponding transposase.
Transposons were co-transfected with mRNA encoding transposase with polypeptide sequence SEQ ID NO: 472 into a CHO cell line with no functional glutamine synthetase gene. The pool of transfected cells were grown in the absence of glutamine added to the media until their viability reached 95%. They were then grown in a 14 day fed-batch using Sigma Advanced Fed Batch media. Protein was purified from the culture supernatant using protein A affinity chromatography, reduced with dithiothreitol, and analyzed on an Agilent QTOF mass spectrometer. We integrated the area under the peaks at 50,456 Da (corresponding to the heavy chain modified by G0: the conserved heptasaccharide core composed of 2 N-acetylglucosamine, 3 mannose and 2 other N-acetylglucosamine residues that are β-1,2 linked to α-6 mannose and α-3 mannose, forming two arms) and 50,602 (corresponding to the heavy chain modified by G0F: the conserved heptasaccharide core plus a fucose residue) to calculate the relative proportion of fucosylated and afucosylated antibody.
Table 5. Inhibition of antibody fucosylation with different numbers of amiRNA hairpins. Transposons were constructed as described in Section 6.1.2.1. The SEQ ID NO of the amiRNA gene including the glutamine synthetase ORF and the globin polyA sequence is given in column A. The Pol II promoter shown in column B was operably linked to the amiRNA whose SEQ ID NO is shown in column C. The amiRNA comprised the number of hairpins shown in column D. Following a 14-day fed batch antibody production run, the culture supernatant contained the concentration of antibody shown in column E. The percentage of antibody that was afucosylated is shown in column F, the percentage that was fucosylated is shown in column G. BDL=below detection limit.

[2] = tested on: Cricetulus griseus glutamine synthetase mRNA; experiment: Growth of CHO cell pools with amiRNA targeted toward glutamine synthetase in the absence of glutamine; assay type: cell-based; conditions: for VCD: glutamine-free media
Description: The multi-hairpin amiRNA was cloned into a piggyBac-like transposon to the 3′ of a spacer polynucleotide with nucleotide sequence SEQ ID NO: 280, and operably linked to a PGK promoter with nucleotide sequence SEQ ID NO: 386. The nucleotide sequence of the multi-hairpin amiRNA gene is given as SEQ ID NO: 540. The piggyBac-like transposon further comprised a selectable marker conferring resistance to G418/neomycin with amino acid sequence SEQ ID NO: 296. The piggyBac-like transposon further comprised a target sequence 5′-TTAA-3′ immediately followed by an ITR with nucleotide sequence SEQ ID NO: 448 (which is an embodiment of SEQ ID NO: 564), immediately followed by further transposon end sequences with nucleotide sequence SEQ ID NO: 445. The piggyBac-like transposon further comprised nucleotide sequence SEQ ID NO: 446, immediately followed by a second ITR with nucleotide sequence SEQ ID NO: 449 (which is an embodiment of SEQ ID NO: 447), immediately followed by the target sequence 5′-TTAA-3′. The transposon was configured so that the multi-hairpin amiRNA, the spacer polynucleotide and the gene encoding the selectable marker, as well as all necessary operably linked control elements, were transposable by a corresponding transposase. The full sequence of the transposon comprising the multi-hairpin amiRNA gene and selectable marker is given as SEQ ID NO: 544.
The transposon was co-transfected with mRNA encoding transposase with polypeptide sequence SEQ ID NO: 523 into a CHO cell line with intact glutamine synthetase genes. The pool of transfected cells were grown in the presence of 600 or 1,000 μg/ml G418 plus 5 mM glutamine until their viability reached 95%.
After the transfected cell pools had recovered to >95% viability, we tested their ability to grow in the absence of glutamine. Cells were transferred to Sigma Advanced Fed Batch media lacking glutamine to an initial a density of 0.3×10^6 live cells/ml. The viable cell density was measured at various times after the removal of glutamine. On the fourth day, cells were diluted back to a density of 0.3×10^6 live cells/ml in media lacking glutamine, to ensure that growing cells had sufficient nutrients. […] After this, the viable cell density approximately tripled between dilution on day 4 and day 6 and doubled again between day 6 and day 8. […] The viable cell density then began to fall for both pools transfected with a transposon comprising the multi-hairpin amiRNA with nucleotide sequence SEQ ID NO: 209 at day 6 (Table 7 columns B and C, compare rows 6, 7 and 8). By day 8 the viable cell density had fallen precipitously to less than 0.02×10^6 live cells/ml. There was no difference between the growth of cells transfected with the control transposon or the transposon comprising the multi-hairpin amiRNA with nucleotide sequence SEQ ID NO: 209 in the presence of glutamine: all pools grew well. We conclude that a multi-hairpin amiRNA comprising guide strand sequences complementary to three different sequences within the CHO glutamine synthetase mRNA target (nucleotide sequence SEQ ID NO: 10) can be used to make a CHO cell dependent upon exogenously provided glutamine. The cells in this pool had been selected with neomycin/G418, which allowed growth of cells whose genomes comprised the transposon comprising the multi-hairpin amiRNA. […] By using the multi-hairpin amiRNA gene we were able to produce a pool of cells in which expression of the essential metabolic enzyme glutamine synthetase was inhibited to a level that prevents growth of the cell in greater than 93% of the cells in the pool.
The multi-hairpin amiRNA with nucleotide sequence SEQ ID NO: 209 was also cloned into three other piggyBac-like transposons, also to the 3′ of a spacer polynucleotide with nucleotide sequence SEQ ID NO: 280. In the first transposon the multi-hairpin amiRNA was operably linked to a PGK promoter with nucleotide sequence SEQ ID NO: 385. […]

B1: SEQ ID NO: 196: two-hairpin amiRNA, guides SEQ ID NOs 23 and 24 complementary to Cricetulus griseus FUT8 mRNA (nucleic acid)
chain: ATCTGATCTTCTGAAGAAAATATATTTCTTTTTATTCATAGCTCTTAACTAGTGGTGATAGCAATGTCAGCAGTGCCTGGAAAAACATCCATTCTCATTCGTGAAGCCACAGATGGAATGAGAATAGATGTTTTTCAAAGTAAGGTTGACCATACTCTACTCTAGTTATATTCTTTAGGCACGAATGTGTGTTTAAAAAAAATAAAAACTAGTGGTGATAGCAATGTCAGCAGTGCCTTTAAATTACATAATGTGGCAGTGTGAAGCCACAGATGACTGCCACATCATGTAATTTACAAGTAAGGTTGACCATACTCTACTCTAGAGTTGTGTTTTAATGTATATTAATGTTACTAATGTGTTTTCAGTTTTATTGATAGTCTTTTCAGTATTATTGATAATCTT
[1]
  antibody titer: 770 mg/L
  antibody fucosylation: 10%

B2: SEQ ID NO: 209: three-hairpin amiRNA, guides SEQ ID NOs 53, 54, 55 complementary to Cricetulus griseus glutamine synthetase mRNA (nucleic acid)
chain: ATCTGATCTTCTGAAGAAAATATATTTCTTTTTATTCATAGCTCTTAACTAGTGGTGATAGCAATGTCAGCAGTGCCTTTGAGTTACAATGAGACAGCTGGTGAAGCCACAGATGCAGCTGTCTCCTTGTAACTCACAAGTAAGGTTGACCATACTCTACTCTAGAGTTGTGTTTTAATGTATATTAATGTTACTAATGTGTTTACTAGTGGTGATAGCAATGTCAGCAGTGCCTTATTCTGACCAATAAAAGCAAGGTGAAGCCACAGATGCTTGCTTTTACTGGTCAGAATCAAGTAAGGTTGACCATACTCTACTCTAGGTTATTTTTAGTATGATTCTGTAAAAATGAATTAATACTAACTAGTGGTGATAGCAATGTCAGCAGTGCCTTTTTACCTGAAGAACTAGCAGCGTGAAGCCACAGATGGCTGCTAGTTATTCAGGTAAACAAGTAAGGTTGACCATACTCTACTCTAGTCAGTTTTATTGATAGTCTTTTCAGTATTATTGATAATCTT
[2]; G418-selected pool
  cells in the pool in which glutamine synthetase is inhibited to a level that prevents growth: greater than 93%
[2]; amiRNA operably linked to a promoter and integrated into the CHO genome, also PGK, EF1, EEF2 promoters in other transposons, listed as 209
  dependence on exogenously supplied glutamine: completely dependent upon exogenously supplied glutamine
[2]; between day 1 and day 4 without glutamine, pool selected with 600 μg/ml G418
  increase in viable cell density: less than 50%
[2]; by day 8 without glutamine
  cells still alive: less than 7%
[2]; by day 8 without glutamine, both pools
  viable cell density: less than 0.02 ×10^6 live cells/ml
[2]; 600 ug/ml G418 pool, day 1
  VCD: 0.45 x 10^6 live cells/ml
[2]; 600 ug/ml G418 pool, day 4 after dilution
  VCD: 0.30 x 10^6 live cells/ml
[2]; 600 ug/ml G418 pool, day 4 before dilution
  VCD: 0.47 x 10^6 live cells/ml
[2]; 600 ug/ml G418 pool, day 6
  VCD: 0.21 x 10^6 live cells/ml
[2]; 600 ug/ml G418 pool, day 8
  VCD: 0.01 x 10^6 live cells/ml
[2]; 1000 ug/ml G418 pool, day 1
  VCD: 0.31 x 10^6 live cells/ml
[2]; 1000 ug/ml G418 pool, day 4 after dilution
  VCD: 0.30 x 10^6 live cells/ml
[2]; 1000 ug/ml G418 pool, day 4 before dilution
  VCD: 0.30 x 10^6 live cells/ml
[2]; 1000 ug/ml G418 pool, day 6
  VCD: 0.26 x 10^6 live cells/ml
[2]; 1000 ug/ml G418 pool, day 8
  VCD: 0.02 x 10^6 live cells/ml
[2]; pool selected with 600 ug/ml G418, day 0 (inoculation)
  VCD: 0.30 x 10^6 live cells/ml
[2]; pool selected with 1000 ug/ml G418, day 0 (inoculation)
  VCD: 0.30 x 10^6 live cells/ml
[2]; to day 4 without glutamine, pool selected with 1,000 μg/ml G418
  increase in viable cell density: failed to increase their viable cell density at all

B3: SEQ ID NO: 197: single hairpin amiRNA, guide SEQ ID NO: 23 complementary to Cricetulus griseus FUT8 mRNA (nucleic acid)
chain: ATCTGATCTTCTGAAGAAAATATATTTCTTTTTATTCATAGCTCTTAACTAGTGGTGATAGCAATGTCAGCAGTGCCTGGAAAAACATCCATTCTCATTCGTGAAGCCACAGATGGAATGAGAATAGATGTTTTTCAAAGTAAGGTTGACCATACTCTACTCTAGAGTTGTGTTTTAATGTATATTAATGTTACTAATGTGTTTTCAGTTTTATTGATAGTCTTTTCAGTATTATTGATAATCTT
[1]
  antibody titer: 514 mg/L
  antibody fucosylation: about 50%
